Source: US20120114590A1 (priority 2005, published 2012)
Where two headings read alike, the source gives them in different places. mPEG 20 kDa propionaldehyde = 20 kD methoxy-polyethylene glycol propionaldehyde, N-terminally conjugated

Legend:
HCV replicon [1] = settings: IFNα at 10 IU/ml, replicon clones, compared to untreated control cell lines; cited from earlier work
HSV-2 = HSV-2 inhibition of cytopathic effect assay in Vero cells; format: cell-based, Herpes Simplex Virus-2; settings: CPE assay
Procedure: The assay involves the killing of Vero cells by the cytopathic HSV-2 virus and the inhibition of cell killing by IL-28 and EL-29. The Vero cells are propagated in Dulbecco's modified essential medium (DMEM) containing phenol red with 10% horse serum, 1% glutamine and 1% penicillin-streptomycin, while the CPE inhibition assays are performed in DMEM without phenol red with 2% FBS, 1% glutamine and 1% Pen-Strep. On the day preceding the assays, cells were trypsinized (1% trypsin-EDTA), washed, counted and plated out at 10^4 cells/well in a 96-well flat-bottom BioCoat® plates (Fisher Scientific, Pittsburgh, Pa.) in a volume of 100 μl/well. The next morning, the medium was removed and a pre-titered aliquot of virus was added to the cells. The amount of virus used is the maximum dilution that would yield complete cell killing (>80%) at the time of maximal CPE development. Cell viability is determined using a CellTiter 96® reagent (Promega) according to the manufacturer's protocol, using a Vmax plate reader (Molecular Devices, Sunnyvale, Calif.). Compounds are tested at six concentrations each, diluted in assay medium in a half-log series. Acyclovir was used as a positive control. […] The average background and drug color-corrected data for percent CPE reduction and percent cell viability at each concentration are determined relative to controls and the IC50 calculated relative to the TC50.

Daudi cells = experiment: Daudi cell proliferation (Alamar Blue); format: cell-based, human; settings: 1000 ng/ml to 0.5 ng/ml, 72 h
Procedure: Human Daudi cells were suspended in RPMI+10% FBS at 50,000 cells/milliliter and 5000 cells were plated per well in a 96 well plate. […] IL-29-CEE was used at a concentration range of from 1000 ng/ml to 0.5 ng/ml. […] IFN-α2a was used at a concentration range of from 62 ng/ml to 0.03 ng/ml. Cells were incubated for 72 h at 37° C.

Pichinde virus [2] = format: cell-based
Coxsackie B4 virus [3] = format: cell-based; settings: KB cells, Neutral Red Assay
Dengue virus [4] = format: cell-based; settings: Vero
Vaccinia virus [5] = format: cell-based; settings: Vero cells, Neutral Red Assay
Vaccinia virus [6] = format: cell-based; settings: Vero
[7] = tested on: Influenza (type A [H3N2]); format: cell-based; settings: Vero
[8] = tested on: Respiratory syncytial virus; format: cell-based; settings: MA-104 cells, Neutral Red Assay
Parainfluenza virus [9] = format: cell-based; settings: MA-104 cells, Neutral Red Assay
[10] = tested on: liver, spleen and blood of mice; experiment: ISG gene expression (OAS, Pkr, Mx1) in liver, spleen and blood of injected C57BL/6 mice (real-time PCR); format: in vivo, mouse; settings: C57BL/6 mice, i.p or i.v, 10 μg-250 μg
Procedure: Mice were sacrificed at various time points (1 hr-48 hr). Spleens and livers were isolated from mice, and RNA was isolated. RNA was also isolated from the blood cells. The cells were pelleted and RNA isolated from pellets using RNAEasy®-kit (Qiagen). RNA was treated with DNase (Amicon) to rid RNA of any contaminating DNA. cDNA was generated using Perkin-Elmer RT mix (Perkin-Elmer). ISG gene induction was measured by real-time PCR using primers and probes specific for mouse OAS, Pkr and Mx1. To obtain quantitative data, HPRT real-time PCR was duplexed with ISG PCR. A standard curve was calculated using known amounts of IFN-stimulated mouse PBLs. All data are shown as expression relative to internal HPRT expression.

[11] = tested on: Influenza (type A [H3N2]); format: cell-based; settings: Vero cells, Neutral Red Assay
Rhino 9 [12] = format: cell-based, rhino virus; settings: Rhino 9, HeLa
[13] = tested on: Influenza (type A [H3N2]); format: cell-based; settings: Maden-Darby Canine Kidney
Polio virus [14] = format: cell-based; settings: Vero cells, Neutral Red Assay
Rhino 2 [15] = format: cell-based, rhino virus; settings: Rhino 2, KB cells, Neutral Red Assay
Rhino 9 [16] = format: cell-based, rhino virus; settings: Rhino 9, HeLa cells, Neutral Red Assay
[17] = tested on: Venezuelan equine encephalitis virus; format: cell-based; settings: Vero cells, Neutral Red Assay
[18] = tested on: 293 HEK cells overexpressing zcytor19; experiment: Inhibition of ligand-induced ISRE-luciferase signaling by soluble receptors; format: cell-based, human; settings: 10 ng/ml ligand, 10 micrograms/ml soluble receptor, 4-hour; relative to PBS alone
[19] = tested on: Respiratory syncytial virus; format: cell-based
Adenovirus [20] = format: cell-based
AML-12 cells = experiment: ISG induction in the mouse liver cell line AML-12 (real-time PCR); format: cell-based; settings: AML-12, 20 ng/ml, 48 hour time point; mRNA relative to HPRT gene expression
Procedure: AML-12 cells were plated in 6-well plates in complete DMEM media at a concentration of 2×10^6 cells/well. […] As a control, cells were either stimulated with mouse IFNα (positive control) or unstimulated (negative). […] RNA was isolated from cell pellets using RNAEasy-kit® (Qiagen, Valencia, Calif.). RNA was treated with DNase (Millipore, Billerica, Mass.) to clean RNA of any contaminating DNA. cDNA was generated using Perkin-Elmer RT mix. ISG gene induction was evaluated by real-time PCR using primers and probes specific for mouse OAS, Pkr and Mx1. To obtain quantitative data, HPRT real-time PCR was duplexed with ISG PCR. A standard curve was obtained using known amounts of RNA from IFN-stimulated mouse PBLs. All data are shown as expression relative to internal HPRT expression.

West Nile virus [21] = format: cell-based; settings: Vero
[22] = tested on: Influenza (type A [H3N2]); format: cell-based; settings: Maden-Darby Canine Kidney cells, Neutral Red Assay
Dengue virus [23] = format: cell-based; settings: Vero cells, Neutral Red Assay
Coxsackie B4 virus [24] = format: cell-based; settings: KB
HHV-8 = HHV-8 replication in BCBL-1 cells (TaqMan PCR extracellular HHV-8 DNA; dye uptake TC50); format: cell-based, human herpesvirus-8; settings: six days
Procedure: The therapeutic index (TI) is calculated as TC50/IC50.

Pichinde virus [25] = format: cell-based; remark: listed apart in the source
Adenovirus [26] = format: cell-based; settings: A549 cells, Neutral Red Assay
Rhino 2 [27] = format: cell-based, rhino virus; settings: Rhino 2, KB
Polio virus [28] = format: cell-based; settings: Vero
Parainfluenza virus [29] = format: cell-based
[30] = tested on: Venezuelan equine encephalitis virus; format: cell-based; settings: Vero
West Nile virus [31] = format: cell-based; settings: Vero cells, Neutral Red Assay
HCV replicon [32] = experiment: HCV Replicon model in AVA5 cells, HCV RNA by dot blot hybridization assay; settings: three consecutive days of treatment

IFNα
reduction of the amount of HCV RNA (HCV replicon [1]): 85% | antiviral activity against HSV-2 (HSV-2): no antiviral activity

B1: IL-29-CEE: IL-29 conjugated with glu tag (protein, UniProt Q8IU54 20-200, looked up)
Interferon lambda-1: GPVPTSKPTTTGKGCHIGRFKSLSPQELASFKKARDALEESLKLKNWSCSSPVFPGNWDLRLLQVRERPVALEAELALTLKVLEAAAGPALEDVLDQPLHTLHHILSQLQACIQPQPTAGPRPRGRLHHWLHRLQEAPKKESAGCLEASVTFNLFRLLTRDLKYVADGNLCLRTSTHPEST
modifications: Glu-Glu tag
notes: IL-29 conjugated with glu tag
effect on proliferation of Daudi cells (Daudi cells): no significant effect

B2: IL-28A: human IL-28A cytokine polypeptide (zcyto20), e.g. SEQ ID NO:18; CHO-derived in Examples 16 and 18 (protein, listed as Homo sapiens)
chain: MKLDMTGDCTPVLVLMAAVLTVTGAVPVARLHGALPDARGCHIAQFKSLSPQELQAFKRAKDALEESLLLKDCRCHSRLFPRTWDLRQLQVRERPMALEAELALTLKVLEATADTDPALVDVLDQPLHTLHHILSQFRACIQPQPTAGPRTRGRLHHWLYRLQEAPKKESPGCLEASVTFNLFRLLTRDLNCVASGDLCV
modifications: SIGNAL (1)...(25)
EC50 Visual (Pichinde virus [2]): >10 µg/mL | IC50 Visual (Pichinde virus [2]): >10 µg/mL | EC50 NR (Coxsackie B4 virus [3]): >10 µg/mL | IC50 NR (Coxsackie B4 virus [3]): >10 µg/mL | EC50 Visual (Dengue virus [4]): 0.01 µg/mL | IC50 Visual (Dengue virus [4]; numerator of SI): >10 µg/mL | EC50 NR (Vaccinia virus [5]): >10 µg/mL | IC50 NR (Vaccinia virus [5]): >10 µg/mL | EC50 Visual (Vaccinia virus [6]): >10 µg/mL | IC50 Visual (Vaccinia virus [6]; numerator of SI): >10 µg/mL | EC50 Visual [7]: 0.1 µg/mL | IC50 Visual ([7]; numerator of SI): >10 µg/mL | EC50 NR [8]: >10 µg/mL | IC50 NR [8]: >10 µg/mL | EC50 NR (Parainfluenza virus [9]): >10 µg/mL | IC50 NR (Parainfluenza virus [9]): >10 µg/mL | ISG gene expression (OAS, Pkr, Mx1) in the livers, spleen and blood of mice [10]: did not induce ISG gene expression | EC50 NR [11]: 0.25 µg/mL | IC50 NR [11]: >10 µg/mL | EC50 Visual (Rhino 9 [12]): >10 µg/mL | IC50 Visual (Rhino 9 [12]; numerator of SI): >10 µg/mL | EC50 Visual [13]: >10 µg/mL | IC50 Visual ([13]; numerator of SI): >10 µg/mL | EC50 NR (Polio virus [14]): >1.672 µg/mL | IC50 NR (Polio virus [14]): >10 µg/mL | EC50 NR (Rhino 2 [15]): >10 µg/mL | IC50 NR (Rhino 2 [15]): >10 µg/mL | EC50 NR (Rhino 9 [16]): 1.726 µg/mL | IC50 NR (Rhino 9 [16]): >10 µg/mL | EC50 NR [17]: 0.035 µg/mL | IC50 NR [17]: >10 µg/mL | Percent Inhibition of Ligand-induced ISRE Signaling by HuCRF2-4-Fc [18]: 80% | Percent Inhibition of Ligand-induced ISRE Signaling by Huzcytor19-Fc [18]: 92% | Percent Inhibition of Ligand-induced ISRE Signaling by Huzcytor19-Fc/huCRF2-4-Fc [18]: 16% | Percent Inhibition of Ligand-induced ISRE Signaling by Muzcytor19-Ig [18]: 91% | EC50 Visual ([19]; MA-104): >10 µg/mL | IC50 Visual ([19]; MA-104, numerator of SI): >10 µg/mL | EC50 Visual (Adenovirus [20]; A549): >10 µg/mL | IC50 Visual (Adenovirus [20]; A549, numerator of SI): >10 µg/mL | Mx1 (AML-12 cells): 0.06 | OAS (AML-12 cells): 0.04 | PkR (AML-12 cells): 0.02 | EC50 Visual (West Nile virus [21]): 0.01 ng/mL | IC50 Visual (West Nile virus [21]; numerator of SI): >10 µg/mL | EC50 NR [22]: >10 µg/mL | IC50 NR [22]: >10 µg/mL | EC50 NR (Dengue virus [23]): 0.1 µg/mL | IC50 NR (Dengue virus [23]): >10 µg/mL | EC50 Visual (Coxsackie B4 virus [24]): >10 µg/mL | IC50 Visual (Coxsackie B4 virus [24]; numerator of SI): >10 µg/mL | IC50 (extracellular HHV-8 DNA) (HHV-8): 1 µg/mL | EC50 NR (Pichinde virus [25]): >10 µg/mL | IC50 NR (Pichinde virus [25]): >10 µg/mL | EC50 NR (Adenovirus [26]): >10 µg/mL | IC50 NR (Adenovirus [26]): >10 µg/mL | EC50 Visual (Rhino 2 [27]): >10 µg/mL | IC50 Visual (Rhino 2 [27]; numerator of SI): >10 µg/mL | EC50 Visual (Polio virus [28]): >10 µg/mL | IC50 Visual (Polio virus [28]; numerator of SI): >10 µg/mL | EC50 Visual (Parainfluenza virus [29]; MA-104): >10 µg/mL | IC50 Visual (Parainfluenza virus [29]; MA-104, numerator of SI): >10 µg/mL | EC50 Visual [30]: 0.01 µg/mL | IC50 Visual ([30]; numerator of SI): >10 µg/mL | EC50 NR (West Nile virus [31]): 0.1 ng/mL | IC50 NR (West Nile virus [31]): >10 µg/mL

B3: PEG-rIL-29-d2-7 (conjugate)
chain: {mPEG 20 kDa propionaldehyde}-MKPTTTGKGCHIGRFKSLSPQELASFKKARDALEESLKLKNWSCSSPVFPGNWDLRLLQVRERPVALEAELALTLKVLEAAAGPALEDVLDQPLHTLHHILSQLQACIQPQPTAGPRPRGRLHHWLHRLQEAPKKESAGCLEASVTFNLFRLLTRDLKYVADGNLSLRTSTHPEST
EC50 (HCV RNA, dot blot hybridization assay) (HCV replicon [32]): 0.000516 µg/mL
